Test results taken from patent US20160194391A1 (AstraZeneca / MedImmune, published 2016).
Where two headings read alike, the source gives them in different places. Values belong to the binder of their own block, whether it stands above or below them.

How the values were obtained:
human IL-6 = human IL-6 (human, UniProt P05231 30-212); experiment: cell-based or functional assay
[1] = target: T1, human dimeric IL-23 (eBiosciences 34-8239) (human, UniProt P29460 23-328; Q9NPF7 20-189); experiment: cell-based or functional assay
T1 sequence (looked up) 1: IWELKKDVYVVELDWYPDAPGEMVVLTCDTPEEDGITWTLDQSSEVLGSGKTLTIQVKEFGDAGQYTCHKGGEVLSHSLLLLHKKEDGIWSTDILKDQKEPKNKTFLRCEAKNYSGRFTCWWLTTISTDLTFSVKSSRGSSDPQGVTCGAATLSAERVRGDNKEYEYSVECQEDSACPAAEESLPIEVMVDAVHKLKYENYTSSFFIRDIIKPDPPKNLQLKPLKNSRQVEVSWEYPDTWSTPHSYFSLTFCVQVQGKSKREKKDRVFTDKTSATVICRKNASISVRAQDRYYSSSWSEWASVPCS
T1 sequence (looked up) 2: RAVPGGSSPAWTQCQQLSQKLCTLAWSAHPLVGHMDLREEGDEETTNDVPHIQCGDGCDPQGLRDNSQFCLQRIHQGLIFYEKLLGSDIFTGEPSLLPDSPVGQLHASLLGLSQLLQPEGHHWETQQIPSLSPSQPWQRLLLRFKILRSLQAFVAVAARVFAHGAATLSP

IL-23 p40-p19-His = target: T2, IL-23 p40-p19-His (human); experiment: ELISA on IL-23 p40-p19-His
T2 construct: Single-chain fusion coated on the IL-23 ELISA plates; also called p40:p19-6×HIS
T2 chain: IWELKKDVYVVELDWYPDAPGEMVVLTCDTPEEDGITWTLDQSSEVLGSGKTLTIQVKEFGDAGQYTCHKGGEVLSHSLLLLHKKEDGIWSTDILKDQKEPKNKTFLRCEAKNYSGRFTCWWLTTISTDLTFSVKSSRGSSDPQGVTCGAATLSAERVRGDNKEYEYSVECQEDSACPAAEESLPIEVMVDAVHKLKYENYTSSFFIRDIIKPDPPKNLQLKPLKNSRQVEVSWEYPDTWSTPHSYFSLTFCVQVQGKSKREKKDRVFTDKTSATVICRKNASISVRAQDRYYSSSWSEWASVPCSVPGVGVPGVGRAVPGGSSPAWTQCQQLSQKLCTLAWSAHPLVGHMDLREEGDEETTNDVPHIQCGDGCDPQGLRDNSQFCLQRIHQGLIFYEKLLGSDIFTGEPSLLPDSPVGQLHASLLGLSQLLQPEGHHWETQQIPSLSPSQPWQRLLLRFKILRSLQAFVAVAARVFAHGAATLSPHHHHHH

[2] = target: T3, primate IL-23 (p40:p19 fusion, 6×HIS) (primate); experiment: cell-based or functional assay
T3 chain: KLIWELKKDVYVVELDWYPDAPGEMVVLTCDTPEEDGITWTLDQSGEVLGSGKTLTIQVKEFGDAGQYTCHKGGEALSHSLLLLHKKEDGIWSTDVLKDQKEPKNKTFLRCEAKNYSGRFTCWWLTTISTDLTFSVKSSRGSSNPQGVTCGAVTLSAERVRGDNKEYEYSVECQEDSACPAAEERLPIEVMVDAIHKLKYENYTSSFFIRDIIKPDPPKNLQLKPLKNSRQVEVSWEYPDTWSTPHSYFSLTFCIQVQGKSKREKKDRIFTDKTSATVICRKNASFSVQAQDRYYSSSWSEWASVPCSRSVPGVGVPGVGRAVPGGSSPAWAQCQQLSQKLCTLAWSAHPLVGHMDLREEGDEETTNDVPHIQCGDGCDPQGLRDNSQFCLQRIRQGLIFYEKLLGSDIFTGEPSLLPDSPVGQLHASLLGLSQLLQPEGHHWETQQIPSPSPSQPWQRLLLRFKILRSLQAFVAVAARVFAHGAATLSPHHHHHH

[3] = target: T1, human dimeric IL-23 (eBiosciences …); experiment: cell-based or functional assay; remark: listed apart in the source
human IL-12 [4] = target: T4, human IL-12 (human, UniProt P29459 23-219; P29460 23-328); experiment: IL-12 binding assay of the selection not described
T4 construct: Bioassay used Prospec-Tany Cyt-362
T4 sequence (looked up) 1: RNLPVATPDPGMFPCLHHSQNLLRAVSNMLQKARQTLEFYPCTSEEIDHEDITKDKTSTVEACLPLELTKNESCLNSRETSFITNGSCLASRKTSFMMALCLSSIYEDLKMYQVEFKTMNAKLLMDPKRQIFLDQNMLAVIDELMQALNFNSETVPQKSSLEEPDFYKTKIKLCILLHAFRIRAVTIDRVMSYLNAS
T4 sequence (looked up) 2: T1 sequence (looked up) 1

[5] = target: T1, human dimeric IL-23 (eBiosciences …); experiment: cell-based or functional assay; remark: listed apart in the source
monkey IL-12 (macaque) [6] = target: T5, monkey IL-12 (macaque) (macaque, UniProt P48091 23-219; P48095 23-328); experiment: cell-based or functional assay
T5 sequence (looked up) 1: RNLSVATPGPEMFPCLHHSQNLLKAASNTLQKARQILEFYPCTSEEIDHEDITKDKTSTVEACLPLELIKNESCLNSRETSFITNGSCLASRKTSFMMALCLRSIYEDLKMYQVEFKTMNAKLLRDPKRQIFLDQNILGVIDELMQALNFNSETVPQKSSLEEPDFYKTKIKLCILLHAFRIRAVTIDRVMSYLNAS
T5 sequence (looked up) 2: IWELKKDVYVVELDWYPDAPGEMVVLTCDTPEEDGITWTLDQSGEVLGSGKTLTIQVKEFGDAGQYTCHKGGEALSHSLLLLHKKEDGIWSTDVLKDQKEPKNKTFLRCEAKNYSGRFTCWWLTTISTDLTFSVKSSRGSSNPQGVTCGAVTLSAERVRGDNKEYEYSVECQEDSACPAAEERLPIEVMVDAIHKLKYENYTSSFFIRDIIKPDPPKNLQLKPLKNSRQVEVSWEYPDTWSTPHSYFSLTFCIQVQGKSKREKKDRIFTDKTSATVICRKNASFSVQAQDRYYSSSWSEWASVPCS

monkey IL-12 (macaque) [7] = target: T5, monkey IL-12 (macaque); experiment: cell-based or functional assay; remark: listed apart in the source
[8] = target: T1, human dimeric IL-23 (eBiosciences …); experiment: SPR; format for the anti-IL-23 scFv alone not described
[9] = target: T1, human dimeric IL-23 (eBiosciences …); experiment: cell-based or functional assay; remark: listed apart in the source
human IL-12 [10] = target: T4, human IL-12; experiment: cell-based or functional assay
[11] = target: T1, human dimeric IL-23 (eBiosciences …); experiment: cell-based or functional assay; remark: listed apart in the source
[12] = target: T1, human dimeric IL-23 (eBiosciences …); experiment: SPR (SensiQ Pioneer), mAb captured on protein G, human dimeric IL-23 as analyte (1-100 nM), 25 C, 1:1 model; the sentence names no analyte
Experimental: Equilibrium constants for rabbit human chimeric mAbs were determined by binding the mAb to the protein G coated chip followed by binding of each analyte (IL-6 or IL-23) to its respective mAb. In order to minimize mass transfer effects, the surface densities of the mAbs for each analyte were adjusted so that as analyte binding approached saturation its corresponding RU fell between 200 and 300. […] For each binding and dissociation cycle the chip surface was regenerated with 15 uL of 20 mM NaOH (5671-02, Mallinckrodt Baker, Philliphsburg, N.J.). The assay temperature was maintained at 25° C. with an analyte flow rate of 50 μL/min and included a 2 minute association phase and 10-30 minute dissociation phase. The on/off rates (kₐ/kd) and dissociation constants (KD) were determined using the format described above along with pseudo-first-order 1:1 interaction model software (Qdat, ICx Nomadics, Stillwater, Okla.).

[13] = target: T1, human dimeric IL-23 (eBiosciences …); experiment: cell-based or functional assay; remark: listed apart in the source

- IC50 (read off the curve) (B9 proliferation, OD570-600) (human IL-6): ~0.7 ng/mL
B1: 9C8 Hum scFv v3-2 (scFv)
scFv: DIQMTQSPSSVSASVGDRVTITCQASQSISNELSWYQQKPGKAPKLLIYRTSTLASGVPSRFSGSGSGTDFTLTISSLQPEDFATYYCQQGYNSNDVDNVFGGGTKVEIKGGGGSGGGGSGGGGSGGGGSEVQLVESGGGLVQPGGSLRLSCAASGIDLSSYDMSWVRQAPGKGLEWVGYIYTDSSTYYANWAKGRFTISRDNSKNTLYLQMNSLRAEDTAVYYCARGSTDYAFDTRLDLWGQGTLVTVSSGPPPPPHHHHHH

- EC50: concentration necessary to inhibit bioactivity of 50 pg/ml of IL-6 [1]: 0.603 ng/mL
- binding result (IL-23 p40-p19-His): binds
- IC50 (read off the curve) (IL-17 from mouse splenocytes, OD450) [2]: ~1 ng/mL
- IC50 (read off the curve) (IL-17 from mouse splenocytes, OD450) [3]: ~1 ng/mL
- binding result (human IL-12 [4]): binds
B2: 1H1 chimeric mAb (antibody, V domains shown)
VH: QELKESGGRLVTPGGSLTLSCTASGLTLGSYSMTWVRQAPGKGLEWMGVIGVGGTLNYASWAQGRFTISKPSSTTVDLKMTSLTTEDTATYFCARGTYSGDSIWGPGTLVTVSS
VL: DVVMTQTPSSTSAAVGGTVTIKCQASQSISSWLAWYQQKPGQPPKPLIVRASILTSGVPSRFKGSRSGTEYTLTISGVQREDAATYYCLGGDGHVSNFGGGTELEILR
notes: Rabbit/human chimeric IgG (human IgG1, kappa); HEK293; also called mAb 1H1

- EC50: concentration necessary to inhibit bioactivity of 50 pg/ml of IL-6 [1]: 0.385 ng/mL
- binding result (IL-23 p40-p19-His): binds
- IC50 (read off the curve) (IL-17 from mouse splenocytes, OD450) [9]: ~2 ng/mL
- IC50 (read off the curve) (monkey IL-12 (macaque) [6]): ~4 ng/mL
- IC50 (read off the curve) (interferon-gamma from NK92 cells, OD450) (monkey IL-12 (macaque) [7]): ~4 ng/mL
- binding result (human IL-12 [4]): binds
B4: 45G5 chimeric mAb (antibody, V domains shown)
VH: QSVEESGGRLVTPGTPLTLTCTVSGFSLSVYPINWVRQAPGKGLGWIGIINDVDDTAYSAWAKGRFTISKASSTTVDLKITSPTTEDTATYFCARGYLSYAYAGDAFDPWGPGTLVTVSS
VL: AVLTQTPSPVSAAVGGTVTIKCQSSQSIYNNNLLSWYQQKPGQPPRLLIHFASTLASGVPDRFSGSGSGTQFTLTISGVQCDDAATYYCLGGYDDDADTAFGGGTEVVVV
notes: Rabbit/human chimeric IgG (human IgG1, kappa); HEK293; also called mAb 45G5

Further lines, the binder ahead of its results:

B3: 31A12 humanized scFv (mammalian expressed) (scFv)
scFv: DIQLTQSPSFLSASVGDRVTITCQASEDIESYLAWYQQKPGKAPKLLIYSASTLTSGVPSRFSGSGSGTEFTLTISSLQPEDFATYYCLGADDTTTVFGGGTKVEIKGGGGSGGGGSGGGGSGGGGSEVQLVESGGGLVQPGGSLRLSCTASGFSLSSYWMTWVRQAPGKGLEWVGTIATSSTYYASWAKGRFTISRDNSKNTLYLQMNSLRAEDTAVYYCARGLTTDYDLDLWGQGTLVTVSSGPPPPHHHHHH
notes: also called Anti IL-23 31A12 scFv; 31A12 scFv
- EC50, inhibition of IL-23 induced IL-17 secretion by mouse spleen cells [5]: 1.37 ng/mL
- IC50 (read off the curve) (monkey IL-12 (macaque) [6]): ~10 ng/mL
- IC50 (read off the curve) (interferon-gamma from NK92 cells, OD450) (monkey IL-12 (macaque) [7]): ~10 ng/mL
- Kd [8]: 0.092 nM
- koff [8]: 7.11e-05 s⁻¹
- kon [8]: 773000 M⁻¹ s⁻¹

B5: 22H8 chimeric mAb (antibody, V domains shown)
VH: QSLEESGGRLVTPGTPLTLTCTVSGFSLSTYTMNWVRQSPGKGLEWIGAISYDGGTAYANWAKGRFTISKTSTTVDLQIASPTTEDTATYFCARGFYVYAYIGDAFDPWGPGTLVTVSS
VL: AVLTQTPSPVSATVGGTVTIKCQSSQTVYKNNLLSWYQQKPGQPPKLLIYLASTLASGVPSRFSGSGSGTQFTLTISGVQCDDAATYYCLGGYDDDADTAFGGGTEVVVVR
notes: Rabbit/human chimeric IgG (human IgG1, kappa); HEK293; also called mAb 22H8
- EC50: concentration necessary to inhibit bioactivity of 50 pg/ml of IL-6 [1]: 0.603 ng/mL
- binding result (IL-23 p40-p19-His): binds
- IC50 (read off the curve) (IL-17 from mouse splenocytes, OD450) [2]: ~4 ng/mL
- IC50 (read off the curve) (interferon-gamma from NK92 cells, OD450) (human IL-12 [10]): ~0.8 ng/mL
- IC50 (read off the curve) (IL-17 from mouse splenocytes, OD450) [11]: ~0.8 ng/mL
- Kd [12]: 0.221 nM
- koff [12]: 8.94e-05 s⁻¹
- kon [12]: 403000 M⁻¹ s⁻¹

B6: 31A12c-PEG20 (scFv)
scFv: DIQLTQSPSFLSASVGDRVTITCQASEDIESYLAWYQQKPGKAPKLLIYSASTLTSGVPSRFSGSGSGTEFTLTISSLQPEDFATYYCLGADDTTTVFGGGTKVEIKGGGGSGGGGSGGGGSGGGGSEVQLVESGGGLVQPGGSLRLSCTASGFSLSSYWLTWVRQAPGKGLEWVGTIATSSTYYASWAKGRFTISRDNSKNTLYLQLNSLRAEDTAVYYCARGLTTDYDLDLWGQGTLVTVSS
modifications: C-terminal azidohomoalanine (Aha) conjugated to 20 kDa linear PEG bis-alkyne
- EC50 (pg/mL) of the folded scFv-PEG [13]: 1040 pg/mL
